In this experiment the target is hamster integrin αv subunit, endogenous in CHO cells (Chinese hamster (endogenous in CHO)). Put plainly: flow cytometry on cells; CHO cells transiently transfected with the β3 plasmid alone, harvested after 48 h; the chimeric complex of human β3 and hamster αv on the cell surface was stained with FITC anti-αvβ3 (LM609; Figure 2C) or with the monoclonal antibody to β3 (Figure 2D); read-out is the percentage of positive cells.

Regarding “integrin β3 subunit with the Pro189Ser substitution (P163S in the mature protein) (from UniProt P05106 27-788) (receptor)”, the percent of the level of the WTβ3-hamster αv complex (LM609 staining) was determined as 78%.
